Assay results: the supplement of paper PMC5998384

Key:
HeLa Kyoto [1] = assay: solubility in G1/S (NP-40 vs SDS abundance) (log2 ratio); higher = more soluble; settings: cell cycle stage: G1/S
HeLa Kyoto [2] = assay: melting temperature (median over replicates), in situ; higher = more thermally stable
HeLa Kyoto [3] = assay: solubility change mitosis vs G1/S (difference of NP-40 vs SDS log2 ratios) (log2 ratio difference); higher = more soluble in mitosis
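Throughout, for melting temperature (median over replicates), in situ: HeLa Kyoto cells synchronized by double thymidine or nocodazole block, proteins quantified by TMT10plex mass spectrometry, three independent biological replicates.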
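Throughout, for solubility change mitosis vs G1/S (difference of NP-40 vs SDS log2 ratios): synchronized HeLa Kyoto cells (double thymidine block for G1/S, nocodazole release for mitosis), protein amounts in NP-40 versus SDS lysates quantified by mass spectrometry, three biological replicates.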
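Throughout, for solubility in G1/S (NP-40 vs SDS abundance): HeLa Kyoto cells arrested at G1/S by double thymidine block, proteins quantified by TMT10plex mass spectrometry in mild NP-40 versus SDS extracts, three biological replicates.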

Substance | solubility in G1/S (log2) (HeLa Kyoto [1]) | melting temperature (HeLa Kyoto [2]; cell cycle stage: G1/S) | melting temperature (HeLa Kyoto [2]; cell cycle stage: mitosis) | solubility change mitosis (log2) (HeLa Kyoto [3])
MASSAASSEHFEKLHEIFRGLHEDLQGVPERLLGTAGTEEKKKLIRDFDEKQQEANETLAEMEEELRYAPLSFRNPMMSKLRNYRKDLAKLHREVRSTPLTATPGGRGDMKYGIYAVENEHMNRLQSQRAMLLQGTESLNRATQSIERSHRIATETDQIGSEIIEELGEQRDQLERTKSRLVNTSENLSKSRKILRSMSRKVTTNKLLLSIIILLELAILGGLVYYKFFRSH [VTI1B] | 0.392 | 53.5 °C | 52.5 °C | 0.188
TOPBP1 | -0.153 | 46.7 °C | 49.1 °C | -0.0346
MRGAGPSPRQSPRTLRPDPGPAMSFFRRKVKGKEQEKTSDVKSIKASISVHSPQKSTKNHALLEAAGPSHVAINAISANMDSFSSSRTATLKKQPSHMEAAHFGDLGRSCLDYQTQETKSSLSKTLEQVLHDTIVLPYFIQFMELRRMEHLVKFWLEAESFHSTTWSRIRAHSLNTVKQSSLAEPVSPSKKHETTASFLTDSLDKRLEDSGSAQLFMTHSEGIDLNNRTNSTQNHLLLSQECDSAHSLRLEMARAGTHQVSMETQESSSTLTVASRNSPASPLKELSGKLMKSIEQDAVNTFTKYISPDAAKPIPITEAMRNDIIARICGEDGQVDPNCFVLAQSIVFSAMEQEHFSEFLRSHHFCKYQIEVLTSGTVYLADILFCESALFYFSEYMEKEDAVNILQFWLAADNFQSQLAAKKGQYDGQEAQNDAMILYDKYFSLQATHPLGFDDVVRLEIESNICREGGPLPNCFTTPLRQAWTTMEKVFLPGFLSSNLYYKYLNDLIHSVRGDEFLGGNVSLTAPGSVGPPDESHPGSSDSSASQSSVKKASIKILKNFDEAIIVDAASLDPESLYQRTYAGKMTFGRVSDLGQFIRESEPEPDVRKSKGSMFSQAMKKWVQGNTDEAQEELAWKIAKMIVSDIMQQAQYDQPLEKSTKL [AKAP10] | 0.00407 | – | 49.8 °C | -0.166
MAATMKKAAAEDVNVTFEDQQKINKFARNTSRITELKEEIEVKKKQLQNLEDACDDIMLADDDCLMIPYQIGDVFISHSQEETQEMLEEAKKNLQEEIDALESRVESIQRVLADLKVQLYAKFGSNINLEADES [PFDN4] | -0.219 | 55.5 °C | 53.5 °C | 0.523
MQSPAVLVTSRRLQNAHTGLDLTVPQHQEVRGKMMSGHVEYQILVVTRLAAFKSAKHRPEDVVQFLVSKKYSEIEEFYQKLSSRYAAASLPPLPRKVLFVGESDIRERRAVFNEILRCVSKDAELAGSPELLEFLGTRSPGAAGLTSRDSSVLDGTDSQTGNDEEAFDFFEEQDQVAEEGPPVQSLKGEDAEESLEEEEALDPLGIMRSKKPKKHPKVAVKAKPSPRLTIFDEEVDPDEGLFGPGRKLSPQDPSEDVSSVDPLKLFDDPDLGGAIPLGDSLLLPAACESGGPTPSLSHRDASKELFRVEEDLDQILNLGAEPKPKPQLKPKPPVAAKPVIPRKPAVPPKAGPAEAVAGQQKPQEQIQAMDEMDILQYIQDHDTPAQAAPSLF [HS1BP3] | 0.292 | 49.7 °C | 50.5 °C | 0.119
MAVLKLTDQPPLVQAIFSGDPEEIRMLIHKTEDVNTLDSEKRTPLHVAAFLGDAEIIELLILSGARVNAKDNMWLTPLHRAVASRSEEAVQVLIKHSADVNARDKNWQTPLHVAAANKAVKCAEVIIPLLSSVNVSDRGGRTALHHAALNGHVEMVNLLLAKGANINAFDKKDRRALHWAAYMGHLDVVALLINHGAEVTCKDKKGYTPLHAAASNGQINVVKHLLNLGVEIDEINVYGNTALHIACYNGQDAVVNELIDYGANVNQPNNNGFTPLHFAAASTHGALCLELLVNNGADVNIQSKDGKSPLHMTAVHGRFTRSQTLIQNGGEIDCVDKDGNTPLHVAARYGHELLINTLITSGADTAKCGIHSMFPLHLAALNAHSDCCRKLLSSGFEIDTPDKFGRTCLHAAAAGGNVECIKLLQSSGADFHKKDKCGRTPLHYAAANCHFHCIETLVTTGANVNETDDWGRTALHYAAASDMDRNKTILGNAHDNSEELERARELKEKEATLCLEFLLQNDANPSIRDKEGYNSIHYAAAYGHRQCLELLLERTNSGFEESDSGATKSPLHLAAYNGHHQALEVLLQSLVDLDIRDEKGRTALDLAAFKGHTECVEALINQGASIFVKDNVTKRTPLHASVINGHTLCLRLLLEIADNPEAVDVKDAKGQTPLMLAVAYGHIDAVSLLLEKEANVDTVDILGCTALHRGIMTGHEECVQMLLEQEVSILCKDSRGRTPLHYAAARGHATWLSELLQMALSEEDCCFKDNQGYTPLHWACYNGNENCIEVLLEQKCFRKFIGNPFTPLHCAIINDHGNCASLLLGAIDSSIVSCRDDKGRTPLHAAAFADHVECLQLLLRHSAPVNAVDNSGKTALMMAAENGQAGAVDILVNSAQADLTVKDKDLNTPLHLACSKGHEKCALLILDKIQDESLINEKNNALQTPLHVAARNGLKVVVEELLAKGACVLAVDENASRSNGPRSTPGTAVQKEE [ANKRD44] | -0.235 | 51.7 °C | 52.2 °C | -0.0872
MDLPVGPGAAGPSNVPAFLTKLWTLVSDPDTDALICWSPSGNSFHVFDQGQFAKEVLPKYFKHNNMASFVRQLNMYGFRKVVHIEQGGLVKPERDDTEFQHPCFLRGQEQLLENIKRKVTSVSTLKSEDIKIRQDSVTKLLTDVQLMKGKQECMDSKLLAMKHENEALWREVASLRQKHAQQQKVVNKLIQFLISLVQSNRILGVKRKIPLMLNDSGSAHSMPKYSRQFSLEHVHGSGPYSAPSPAYSSSSLYAPDAVASSGPIISDITELAPASPMASPGGSIDERPLSSSPLVRVKEEPPSPPQSPRVEEASPGRPSSVDTLLSPTALIDSILRESEPAPASVTALTDARGHTDTEGRPPSPPPTSTPEKCLSVACLDKNELSDHLDAMDSNLDNLQTMLSSHGFSVDTSALLDLFSPSVTVPDMSLPDLDSSLASIQELLSPQEPPRPPEAENSSPDSGKQLVHYTAQPLFLLDPGSVDTGSNDLPVLFELGEGSYFSEGDGFAEDPTISLLTGSEPPKAKDPTVS [HSF1] | 0.523 | 47.9 °C | 49.8 °C | -0.148
